Data reported in the domain aggregation screens of Martell et al. (2025).

Assay: soluble fraction after stress (log2 fold change); higher = more stays soluble; pooled small domains, quantitative proteomics
Conditions: stress: 50 degC
Summary of the method: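 Pooled custom libraries of small protein domains were measured in a high-throughput format, with quantitative proteomics as the read-out. Each library was stressed at 50°C. Aggregation propensity is given as the base-two logarithm of the fold change in how much of each protein stays soluble after the stress. Higher values mean a larger share of the protein remains in solution.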

| Sequence | soluble fraction (log2) |
| --- | --- |
| HMKGPAFAKIDLTQLPAGLTSFLNTNAAGFKLDYAVAITKDSVIIEYHVGVTIGTAKKEFHLDPNFQLLP | -0.36 |
| HMAATGPLTPREAEIARLAAGHLSNRQIAEQLVVSERTVENHLYRIFIKLAVTGRDDLAAALAATEQ | -0.689 |
| HMKNEQESIAQKLYEAALKNDFVTIQEIQSGGYRLRNDDLTHMRESGVQSNTLIAIQKIFGL | 0.398 |
| HMETIGKRVRAARQELGLTMKQLHEQTGLSTGNISDIENDRNTPSVSSLVALGRALRRSLDWLLTGEE | -0.252 |
| HMHRTMFYLDVDLAEGQSVKMAVHEDDDPGELAARFADEHQLKSRAMEKLRSVIEENVRLHRRNQ | -0.306 |
| HMALRFMAYGRINGTNVHFRTGASASTASLGRYSRGTEFGVYDKIGGWYRVRLLSTGQEGYVYSRYLTLTG | -2.67 |
| HMISESIPAKDALLRLLNTAYQTRTNAAGEFYFNDVPPGKYILQASVNDVEIIRENISINEN | -0.249 |
| HMIAPQISSGKVNTKELNVRSGPATTFGIVKKLPLNAMVGIFEEKNGWFRIATGQWVSKTYVDL | -1.5 |
| HMRESDQSTVELSLERTIQEALMVNPRTSSVEEFSFEWGTGRVKVSFIVYSVDGEPFTVDSIIE | -2.27 |
| HMPTNSDRLIGSDGVVSSKIDNLQGTGKVYISGLTWSARTIDGSEAEEGDIVTVEKIEGATLYVTKR | 0.0599 |
| HMRDLVTYVVQVNGKLRGKLEVSPSTDDNSLKTMALELENVQRALEGLSVKKVIVIPGKMVSIAAG | 0.167 |
| HMDFRVGVWVELVQQRRSVRTQLTWVSPQHTLFLFTAKDGSTQSMTLRMRDKLLAEGNLRIVAPPSR | -2.23 |
| HMGAGFREAIPPALDGERIDRVVSLLAYVSRNRAAGALAAGSVSVDGEVVFQRSRRVREGEELVVTGFERE | -0.97 |
| HMDRSLYVGDAVGFDSARGLMEIEVKNKFSVVAVSLKKKPSGNFITPLLRMEKKKGEAVTVAPGSGHR | -0.33 |
| HMDPEARRRAILNAAIDVIVEKGAAALTHRAVAARAGVSLGSTTKYFSSIEDLRENAMDALVREMD | -0.273 |
| HMYIVVPDLSKKDINEVANILAAQSLRFQVIDSANFRSDFPKNAVISQKPLAGSEVKVNKKIYLQLNPS | -0.345 |
| HMKNSMANVQARREKILSAVDQSEPVAVEGLAQRFNVSITTLRRDLKALSDMGQVKWHHGLVERT | -0.173 |
| HMNFFQEIGNSILIELNKKNWTQSMFAHKIGVSDEVFKQIVQGKKALNAVEIAKIANTLDVDPEKLLRK | -0.191 |
| HMHKKQEVQDSIDAAEEFMRASGVPAELITSKRAYAVKAIYADAVDKGTPDEIVKKDGMIVALISQMRS | 0.267 |
| HMSTTYLNEGDRITLTDSVNIRTSMSETADRVGLAYQGDVVTVIMSYAEGWTKVSWNGQTGYAKTEYL | -0.617 |
| HMDTHRLNYSDFVAEVQAQRVSKVVIDGYTIVGQRTNGETFETVRPALQDPKLVDDLLQNNVIIEGKQPE | 0.0106 |
| HMGIRQGKVTSTFVNVRSGASTANAKVGELHKGDVVSLIEKVANFWRIGPGQFVSADYIQVLAS | -0.508 |
| HMDHAHWEEHEVKLLLTLAIQEKEKFNWNQFGLTREGWRNIYPHFPQYSRKQINNKFDFLKQKYRAWKDS | -1.84 |
| HMQDLAKRWVEEFGDLLYKYTLPRVSDSGIAKDLVQETFLAAWRNIDNFKGEASEKNWLFTILKNKIIDH | -0.213 |
| HMSDLTEVIVKFSGDIQPIRQDLDAQVEILLKGYAIITLSPNKIGRLYSYPQIESIEIPKNLYI | -1.26 |

| Sequence | soluble fraction (log2) |
| --- | --- |
| HMPAVTEQTRANLRTAFWSLYREKPTSKITVREITDRAGYNRATFYLYYRDVYDLFEQIEQEIL | -2.36 |
| HMKQLRVLGIVKAGSILKNSDGSIEFVIEDSGKSLLVKYKGVIPDIFKDGVEAVVEGDLRGSVFNADKLF | -0.75 |
| HMDEKVTIPSVSGLLLSEAKTKLVDAGLTVETVYDDESKEAKDTVLSQSPLQYGKVDKGTVVTLTVSSGKG | -0.043 |
| HMGAPAISYSKFLEQVDRKNVASVTIYKDGRIDGVMTSGSRFATESPSDPGLVGDLLKAGVEIRAKPP | 0.126 |
| HMRKEPSYASDIITRLKEADLIVVEGTLYPLLTRLKKDGLLSYEWRESTQGPPRKYYALTLDGET | -0.455 |
| HMEYSNLGEALRRLSEIDLQIILLKYSHGFSIKEISKILDIKEVNLYKRNKRALNKLKKILAEMEVLSN | -0.397 |
| HMNEMIFNQKKIGQFFMNPETNSPMIYPLELGHKMKIIELKNGWYNVTDEKTGLNGWVKEEDFGVTKPLDS | -0.205 |
| HMVITISEADVSGTYTKSITQGDWKYIRTWTPFEDERLYDLAKDPMELRDLAPAAPSKLAELRELLSALVS | -1.51 |
| HMTLSENEKIIVDTIMKYQPLHIDVLNQQVKVDFYTLLGLLTKLEMEGIVLKNPGNIYKINTL | -0.346 |
| HMISEGDIIKGTVIDVNEEEVILDLKYYAQGVIKAENLSNDPDFLAAGKISVGDEIEATVIKMDDGEGNIE | 0.0355 |
| HMSVTSEIGAKIKYFRKSKHFSLQEMADLLYKSKSTLSKYENGQISIDIETLYAIAKVLGVHVEQLLYSEP | -4.49 |
| HMSMSKISNLLEIMMIIQYKGLTTASELAQSLGVDKKTVYRYINSLSKANIPIYTKKGRYGGFYIDKNF | -1.19 |
| HMQKTQVVEVAGKSYQLTKMDARTGSYVAFKVAGVLAPSGGKTAEMAAALMGMPRKDFDELQSLLLRTV | 0.141 |
| HMDLGLTDDQRLVYGLLSPTVPRSSGELLGMVDFGRSKLSRILKELIELGQVFTVGVGRGLKYKRG | -0.307 |
| HMDLGTHMRLIVPTGMRVDHIVYESNGKNISVDHDRSISVRWNGEVVSIDVSPLPSRPDFDVLIYMSPK | -0.0114 |
| HMGESYQIKDGELLVDIAQRVKPAGMTLRQTINALVAANPRAFRNGNPDLMYRGATLTIPDGDTLRRLAH | 0.131 |
| HMKEETYHYTVRYVTDGGDILASYEGKATKDSVFFPEVKTFDGYTAVRGEEPMFHLVSDHAVFQIVYQKNG | -0.147 |
| HMLPDSQLMKEATAWFMRQAADDFSGAERRRLDAWRAQSPAHARAYHQVQALWNAPELQQAAAR | -0.0227 |
| HMDVSPVRLIREARGLSQVEVAKAAGLSRAAYQNIEVGKTVPRASTMVNIARALGVSMDDLLAPV | -0.251 |
| HMTEELQDMESRIIEAAKRVFVRKGYEATKMSDIALEVGLGRTALHYYFRTKEMLFDAIFGRLMGV | -0.385 |
| HMFTKSNLEKLSNSELILKAIDSGNYSKIEFGGSEALNPDVPSYKKDLKNREELIEILSEMGM | -0.0323 |
| HMNQRQLQIKQMLDVAQEVFLKQLKTVFPDVSEMTIRRDLILLEDMGYAVRTHGGAVSINRF | -2.14 |
| HMAVTNLTAKQISDTRWRVTWDSTLASPTYYVYRDGLLMMQTRQELYEFDAARGEQVQIDVLDDMAAAPAE | -0.741 |
| HMSMQIILLDKVVNLGGLGDVVKVKDGYARNYLIPQGKAKRANTANLAEFEARRVELERLAAEQLAQAQA | 0.0814 |
| HMKSERHALILSLIEKKNVETQEDLAELLKERGVAVTQATVSRDIKELRLIKVLSETGGYKYATVDKAE | -0.103 |

| Sequence | soluble fraction (log2) |
| --- | --- |
| HMSSQWWYSAGGERKGPVDFATLRGLYVQGAIDGRTLAWREDMQGWEAVNDIPDLEPLRRAVPPEL | -0.0348 |
| HMPSLSREREAAILEMIERRPSTAEDVASGLGLAVNEVIKLLDGTALRGSVETFQSGEEIYYTRKR | 0.144 |
| HMQDPVWVDWLGENDWFQKDPKRRGLANGYSEILRAEQPELVGRPFLDEVTRRVQADFPELFG | -0.335 |
| HMKKVKVPNVVGMSLKEARDALSAVNIAVNQVAGSVEDKSVVTEQSLKAGDEVDEGSSLNLTTEYK | -0.156 |
| HMKGLKERLLYFIEYKGLPVQMFEKIVGLSNAAVSKMGDNTRRSTIDKISKSFPELDVNWLLTGQGEMLSY | -0.255 |
| HMGDAPLITVDKRTIKVNGAKAQIQVYDTTGRLVKNVSPAGKLTLIEMAKPGIFIVHTQSMSFKVVL | -0.448 |
| HMKSQVVAYSDFVKAVNQKQINEVQIQGDKIRAINKAGEEITVTWLQNDQKLMDDLLDNNVKTIFLE | 0.29 |
| HMKEYPEVITTSRLNVRTGPGTGYQRLGTLDQNLRVLVLTRQQGWAQIRGMLNGETVIGWVNDYYLQAID | -0.319 |
| HMAILDTALDVLSMNLKDNYTSFQILRQAAIAGKIAFNLTEKNPLGGVIEVELTGDDLETWIEAATW | -0.115 |
| HMTTARERVYKTLQQWIVNGTLLPEERLNDVELARYFSVSRTPVREALQMLAEQKLVKMVPSSGTFVA | -0.769 |
| HMTGIQDVPALETRRVGNTFFFDRATDVQVYDLQGRLLQQARKVTSVSIGHLQQGVYVLTDGRASVKVQ | -1.23 |
| HMNLSAREWTSADGSRTFQGELTGFQDGKVKVRRSDGKSLVFAIELLSESDQQFIKTNQLVIAKKDED | 0.161 |
| HMITPAARLRALKIRLSVDEVAQIVQRLVNGETVYQIGKPDTGGHAKATVGKINALRLAGQLHFL | -1.28 |
| HMLRQVSDSNALETAVKKVLDANPEEVERYKSGNKKLISFFVGQTMKATKGAGNPKEINSILAKLL | 0.0186 |
| HMNGLPDLSRYTGVSIVDGLASVGSDSSFAYRAKIAETLGISDYKGSAGQNLEMIRKLGGKV | -0.291 |
| HMDEMPVEFVKISIKAGHPWENRKIKDLASLPDLLLVLILRGEERIIPNGNTVVLAGDKIVLSALSPE | -0.936 |
| HMLPDGEAFVKVNTSLNIRTGPWGQIVGWFHNNDKVKIIGRDGDWYKISHNGQTRYIHSRYVSSSR | -0.913 |
| HMKNDIQLKHDVEEELQWDPAVDASRFAVQAKDGVVTLSGGVDTFADKHAAEEAIRRVAGVTALVIHVDV | -0.107 |
| HMRSPLYVQIKQHILGDIRKGVWKPGEKLPTELDLAERFGVSVGTVRRAMGGLEDEGIISRREGSGTFVRT | 0.0686 |
| HMQLHDTMKRVYEALDISEQKLAESLGLKLSTIINWQKNGISKIGINKLNQTFGLDMQWILTGQGEPFI | 0.116 |
| HMNNGAEIGAEIRSLRKARGLTLEDLAAKIGRSVGYISQVERGISPLTIPNLKAIAEVLGVGINWFFRGEA | -0.552 |
| HMYDKKVFRLLFILNQLDSRKKVSTGELAKEFNVSPRTVQRDIVLLNTTGFPIISLEKGYHSFMEGFSLK | -1.12 |
| HMKRLPAQMGGGDGVLRVPGLNNFVYVTIADKTLPAFNNRVPPKKGLRIWVGYSPEEPNLFQVLSTRTD | -0.576 |
| HMRQSQEVSGGERYRRLTAYLDTHPFITRKEYSGITGLLKNKALNDLNLLVNKGYLEAMGRGSHKVYVRPM | -0.424 |
| HMEQNHYEVLGVSRDAIPEEIRKAYFEYARKLHPDANPDPGAAEQFMRIQTAYDVLSNPDRRHEYDGLLPP | -0.000773 |
